Measured values reported in PMC11602245 (Journal of Peptide Science, 2024).
Starred links: 1 amine or outer side, 2 acyl side, 3 side chain; linkers in the order of their positions; H or OH if unused. Positions of bridges follow the written chain, without caps; N, C: chain ends. Non-standard residues stand in square brackets, D forms with d. Residues, ends and D or L forms follow the SMILES beside them. *: point of attachment. X1 = NC(=O)C[C@H](N[*:1])c1cn([C@@H](Cc2ccccc2)C(=O)[*:2])nn1; DOTA = O=C(O)CN1CCN(CC(=O)O)CCN(CC(=O)*)CCN(CC(=O)O)CC1; NMeF = CN[C@@H](Cc1ccccc1)C(=O)O

Assays:
[1] = Metabolic stability in human plasma; assay type: in vitro ADME
Protocol: The human plasma used in the in vitro stability assays was purchased from Sigma‐Aldrich (H4522‐20ML).
The stability assays were conducted by incubating the ^111In‐labeled peptide conjugates in human plasma at 37°C for 24 h (n = 2). The detailed description of the procedure is described elsewhere.[13]
In order to assess the proteolytic stability of the new radiolabeled peptide conjugates, in vitro stability studies were conducted in blood plasma. [^111In]In‐XG1 and [^111In]In‐XG1‐A/B/C were incubated in human plasma at 37°C, and samples were taken after 24 h for their analysis by γ‐HPLC (Figure 3). […] This hypothesis is also supported by previously reported data that identified Thr^10‐Phe^11 as one of the main cleavage sites of the native SST‐14.[15] […] To better understand the degradation of [^111In]In‐XG1‐C over time, the stability was also determined after 4 h incubation in plasma (Figure 3D), after which only 27% of the original radiopeptide remained intact. […] We hypothesize that the incorporation of the methylated amino acid (N‐Me‐Phe^11) leads to a conformation of the peptide that facilitates the accessibility of amide bonds to proteases. Similar observations have been reported for other triazolo‐peptidomimetics.[11] […] For example, one of the main enzymes involved in the degradation of the native SST‐14 is neprilysin (NEP), a membrane‐bound metalloprotease abundantly expressed in various tissues.[21], [22] The role of this enzyme in the degradation of peptides cannot be contemplated with in vitro plasma stability assays but would have to be assessed in vivo (e.g., mice).[23]

[2] = cited from earlier work
human plasma = settings: 37°C, up to 24 h
[3] = target: T1, SST2R‐overexpressing AR42J cells (Rattus norvegicus, UniProt P30680); experiment: Cell binding and internalization studies; assay type: cell-based; settings: after 2 h, corresponds to the determined unspecific binding (blocking experiments)
T1 construct: incubating the ^111In‐labeled peptide conjugates with SST2R‐overexpressing AR42J cells in six well plates; host or cells: AR42J cells
T1 sequence (P30680 whole entry): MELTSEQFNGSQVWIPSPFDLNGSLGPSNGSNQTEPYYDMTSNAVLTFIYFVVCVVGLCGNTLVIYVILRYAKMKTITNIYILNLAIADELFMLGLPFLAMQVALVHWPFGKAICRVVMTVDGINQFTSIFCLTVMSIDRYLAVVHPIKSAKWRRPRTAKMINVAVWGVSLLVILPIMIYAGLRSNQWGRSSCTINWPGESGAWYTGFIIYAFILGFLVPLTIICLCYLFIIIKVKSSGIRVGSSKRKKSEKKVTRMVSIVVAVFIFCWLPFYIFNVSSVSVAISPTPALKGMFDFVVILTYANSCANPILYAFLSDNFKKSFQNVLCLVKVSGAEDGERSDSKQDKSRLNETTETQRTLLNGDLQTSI
Protocol: The AR42J cell line was purchased from the American Type Culture Collection (ATCC).
The cell binding and internalization assays were performed by incubating the ^111In‐labeled peptide conjugates with SST2R‐overexpressing AR42J cells in six well plates as previously described (n = 2–3 in triplicates).[13]
The binding of radiolabeled somatostatin derivatives to multiple SSTRs is of high interest because it allows to address a wide range of cancers with distinctive SSTR‐subtype expression patterns.[24] Yet, SST2R is of major medical importance because it is over‐expressed or co‐expressed by most cancer types (e.g., NETs).[25] Thus, we first focused on SST2R by conducting cell binding and internalization experiments with the SST2R‐expressing cell line AR42J. In order to determine the specificity of the binding and internalization of the radiolabeled peptides, the octapeptide TATE (DPhe^1‐cycle(Cys^2‐Phe^3‐DTrp^4‐Lys^5‐Thr^6‐Cys^7)Thr^8) was used in excess for blocking experiments. […] These values are in accordance with previously reported data.[13] […] From the total applied activity, <1% was found at the cell membrane and internalized, which corresponds to the determined unspecific binding (blocking experiments). See Figure S9 for the results of the binding and internalization studies. […]

For `C[C@H](NC(=O)CN1CCN(CC(=O)O)CCN(CC(=O)O)CCN(CC(=O)O)CC1)C(=O)NCC(=O)N[C@H]1CSSC[C@@H](C(=O)O)NC(=O)[C@H](CO)NC(=O)[C@H]([C@@H](C)O)NC(=O)[C@H](Cc2ccccc2)NC(=O)[C@H]([C@@H](C)O)NC(=O)[C@H](CCCCN)NC(=O)[C@@H](Cc2c[nH]c3ccccc23)NC(=O)[C@H](Cc2ccccc2)NC(=O)[C@H](Cc2ccccc2)n2cc(nn2)[C@H](CC(N)=O)NC(=O)[C@H](CCCCN)NC1=O` [[^111In]In‐XG1, [DOTA,Asn^5‐Ψ[Tz]‐Phe^6,DTrp^8]SST‐14, metal not drawn] ({DOTA}-AGCK[X1]F[dW]KTFTSC-OH; disulfide 3-13), the “major radiometabolite at rt = 6.4 min” value [1] was 35.3% and the remaining at 24 h ([1]; human, plasma) was 56%.
In the case of `C[C@H](NC(=O)CN1CCN(CC(=O)O)CCN(CC(=O)O)CCN(CC(=O)O)CC1)C(=O)NCC(=O)N[C@H]1CSSC[C@@H](C(=O)O)NC(=O)[C@H](CO)NC(=O)[C@H]([C@@H](C)O)NC(=O)[C@H](Cc2ccccc2)NC[C@H]([C@@H](C)O)NC(=O)[C@H](CCCCN)NC(=O)[C@@H](Cc2c[nH]c3ccccc23)NC(=O)[C@H](Cc2ccccc2)NC(=O)[C@H](Cc2ccccc2)n2cc(nn2)[C@H](CC(N)=O)NC(=O)[C@H](CCCCN)NC1=O` [[^111In]In‐XG1‐B, [DOTA,Asn^5‐Ψ[Tz]‐Phe^6,DTrp^8,Thr^10‐Ψ[NH]‐Phe^11]SST‐14, metal not drawn], the remaining at 24 h ([1]; human, plasma) is reported as over 97%.
`C[C@H](NC(=O)CN1CCN(CC(=O)O)CCN(CC(=O)O)CCN(CC(=O)O)CC1)C(=O)NCC(=O)N[C@H]1CSSC[C@@H](C(=O)O)NC(=O)[C@H](CO)NC(=O)[C@H]([C@@H](C)O)NC(=O)[C@H](Cc2ccccc2)N(C)C(=O)[C@H]([C@@H](C)O)NC(=O)[C@H](CCCCN)NC(=O)[C@@H](Cc2c[nH]c3ccccc23)NC(=O)[C@H](Cc2ccccc2)NC(=O)[C@H](Cc2ccccc2)n2cc(nn2)[C@H](CC(N)=O)NC(=O)[C@H](CCCCN)NC1=O` [[^111In]In‐XG1‐C, [DOTA,Asn^5‐Ψ[Tz]‐Phe^6,DTrp^8,N‐Me‐Phe^11]SST‐14, metal not drawn] ({DOTA}-AGCK[X1]F[dW]KT[NMeF]TSC-OH; disulfide 3-13) showed a remaining at 4 h ([1]; human, plasma) of 27%.
In the case of “Ala^1 Gly^2 Cys^3 Lys^4 Asn^5 Phe^6 Phe^7 DTrp^8 Lys^9 Thr^10 Phe^11 Thr^12 Ser^13 Cys^14”, the cleaved bond [2] is listed as “Thr10-Phe11, major”.
For “[DOTA,Asn^5‐Ψ[Tz]‐Phe^6,DTrp^8,Thr^10‐Ψ[NH]‐Phe^11]SST‐14”, the not cleaved (human plasma) was “more than 97% of intact peptide after 24 h”.
For “[DOTA,Asn^5‐Ψ[Tz]‐Phe^6,DTrp^8,β‐Phe^11]SST‐14”, the not cleaved (human plasma) was “more than 97% of intact peptide after 24 h”.
In the case of “[DOTA,Asn^5‐Ψ[Tz]‐Phe^6,DTrp^8,β‐Phe^11]SST‐14 [[^111In]In‐XG1‐A]”, the “total applied activity found at the cell membrane and internalized” value [3] is reported as under 1%.
